These results are taken from article PMC7617670, “Activity Regulation of a Glutamine Amidotransferase Bienzyme Complex by Substrate-Induced Subunit Interface Expansion” (ACS catalysis, 2025).

The chains are these.
B1: PabB, synthase subunit of aminodeoxychorismate synthase (ADCS) from Escherichia coli, wild type (enzyme)
chain: MKTLSPAVITLLWRQDAAEFYFSRLSHLPWAMLLHSGYADHPYSRFDIVVAEPICTLTTFGKETVVSESEKRTTTTDDPLQVLQQVLDRADIRPTHNEDLPFQGGALGLFGYDLGRRFESLPEIAEQDIVLPDMAVGIYDWALIVDHQRHTVSLLSHNDVNARRAWLESQQFSPQEDFTLTSDWQSNMTREQYGEKFRQVQEYLHSGDCYQVNLAQRFHATYSGDEWQAFLQLNQANRAPFSAFLRLEQGAILSLSPERFILCDNSEIQTRPIKGTLPRLPDPQEDSKQAVKLANSAKDRAENLMIVDLMRNDIGRVAVAGSVKVPELFVVEPFPAVHHLVSTITAQLPEQLHASDLLRAAFPGGSITGAPKVRAMEIIDELEPQRRNAWCGSIGYLSFCGNMDTSITIRTLTAINGQIFCSAGGGIVADSQEEAEYQETFDKVNRILKQLEK
B2: PabA variant aR30E (enzyme, Escherichia coli)
chain: MILLIDNYDSFTWNLYQYFCELGADVLVKENDALTLADIDALKPQKIVISPGPCTPDEAGISLDVIRHYAGRLPILGVCLGHQAMAQAFGGKVVRAAKVMHGKTSPITHNGEGVFRGLANPLTVTRYHSLVVEPDSLPACFDVTAWSETREIMGIRHRQWDLEGVQFHPESILSEQGHQLLANFLHR
notes: PabA, glutaminase subunit of ADCS, E. coli; construct as m1 with one exchange; Made by QuikChange mutagenesis from the construct of m1; source: E. coli BL21-Gold (DE3), purified (Ni-IMAC, preparative gel filtration)

The target of the assay “PabA variant aR30E” is B2. As to the kind of experiment: cell-based or functional assay.
Assay [1] has as its target T1, PabA, glutaminase subunit of aminodeoxychorismate synthase (ADCS) from Escherichia coli, wild type (Escherichia coli, UniProt P00903 1-187).
T1 sequence: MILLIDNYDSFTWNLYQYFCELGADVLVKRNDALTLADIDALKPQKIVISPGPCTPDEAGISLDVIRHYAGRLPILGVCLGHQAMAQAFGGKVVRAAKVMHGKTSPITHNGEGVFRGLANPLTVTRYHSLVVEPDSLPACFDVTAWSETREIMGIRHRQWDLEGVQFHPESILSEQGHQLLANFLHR
As to the kind of experiment: cell-based or functional assay.

Assay [2] concerns the target B1. As to the kind of experiment: ITC; 250 μM PabB titrated into 25 μM PabA in the cell; 25 °C; 50 mM Tris/HCl pH 7.5, 50 mM KCl, 5 mM MgCl2; without Cho and Gln; one set of sites. The note with it: both partners purified.
In assay [3] the target is B1. As to the kind of experiment: SEC; analytical SEC with 5 mM L-Gln in the buffer; PabA and PabB mixed equimolar, 50 μM each; Superdex 200 increase 10/300 GL; 50 mM Tris/HCl pH 7.5, 50 mM KCl, 5 mM MgCl2, 2 mM DTT; 25 °C; without Cho. The note with it: both partners purified. For orientation: Size exclusion chromatography separates by hydrodynamic size, large species first.

A word on the Kd: it is the equilibrium constant for the complex coming apart.

With B1, the “glutaminase catalytic efficiency kcat/KM^Gln (coupled GDH assay, 200 μM Cho, PabB in fourfold excess)” value with PabA variant aR30E came to 79 M⁻¹ s⁻¹; in assay [1], 1090 M⁻¹ s⁻¹. For B2, the dissociation constant (Kd) in assay [2] turned out to be 380 nM.

B3: PabA variant aS171A (enzyme, Escherichia coli)
chain: MILLIDNYDSFTWNLYQYFCELGADVLVKRNDALTLADIDALKPQKIVISPGPCTPDEAGISLDVIRHYAGRLPILGVCLGHQAMAQAFGGKVVRAAKVMHGKTSPITHNGEGVFRGLANPLTVTRYHSLVVEPDSLPACFDVTAWSETREIMGIRHRQWDLEGVQFHPEAILSEQGHQLLANFLHR
notes: as for B2
B3 registered a Kd in assay [2] of 920 nM. Compared with the last molecule, the Kd is about 2.4-fold higher.

B4: PabA variant aC54G (enzyme, Escherichia coli)
chain: MILLIDNYDSFTWNLYQYFCELGADVLVKRNDALTLADIDALKPQKIVISPGPGTPDEAGISLDVIRHYAGRLPILGVCLGHQAMAQAFGGKVVRAAKVMHGKTSPITHNGEGVFRGLANPLTVTRYHSLVVEPDSLPACFDVTAWSETREIMGIRHRQWDLEGVQFHPESILSEQGHQLLANFLHR
notes: as for B2
In assay [2], B4 gave a Kd of 60 nM. This Kd is about 15-fold lower than that of the molecule before.

B5: PabA variant aH128A (enzyme, Escherichia coli)
chain: MILLIDNYDSFTWNLYQYFCELGADVLVKRNDALTLADIDALKPQKIVISPGPCTPDEAGISLDVIRHYAGRLPILGVCLGHQAMAQAFGGKVVRAAKVMHGKTSPITHNGEGVFRGLANPLTVTRYASLVVEPDSLPACFDVTAWSETREIMGIRHRQWDLEGVQFHPESILSEQGHQLLANFLHR
notes: as for B2
For the molecule B5, in assay [2], the dissociation constant (Kd) came to 370 nM.

B6: PabA variant aC54A (enzyme, Escherichia coli)
chain: MILLIDNYDSFTWNLYQYFCELGADVLVKRNDALTLADIDALKPQKIVISPGPATPDEAGISLDVIRHYAGRLPILGVCLGHQAMAQAFGGKVVRAAKVMHGKTSPITHNGEGVFRGLANPLTVTRYHSLVVEPDSLPACFDVTAWSETREIMGIRHRQWDLEGVQFHPESILSEQGHQLLANFLHR
notes: as for B2
With B6, the dissociation constant (Kd) in assay [2] amounted to 180 nM.

B7: PabB variant bD308A (enzyme, Escherichia coli)
chain: MKTLSPAVITLLWRQDAAEFYFSRLSHLPWAMLLHSGYADHPYSRFDIVVAEPICTLTTFGKETVVSESEKRTTTTDDPLQVLQQVLDRADIRPTHNEDLPFQGGALGLFGYDLGRRFESLPEIAEQDIVLPDMAVGIYDWALIVDHQRHTVSLLSHNDVNARRAWLESQQFSPQEDFTLTSDWQSNMTREQYGEKFRQVQEYLHSGDCYQVNLAQRFHATYSGDEWQAFLQLNQANRAPFSAFLRLEQGAILSLSPERFILCDNSEIQTRPIKGTLPRLPDPQEDSKQAVKLANSAKDRAENLMIVALMRNDIGRVAVAGSVKVPELFVVEPFPAVHHLVSTITAQLPEQLHASDLLRAAFPGGSITGAPKVRAMEIIDELEPQRRNAWCGSIGYLSFCGNMDTSITIRTLTAINGQIFCSAGGGIVADSQEEAEYQETFDKVNRILKQLEK
As to B7, the “glutaminase catalytic efficiency kcat/KM^Gln (coupled GDH assay, 200 μM Cho, PabB in fourfold excess)” value in assay [1] is 13 M⁻¹ s⁻¹.

B8: PabA variant aP53A (enzyme, Escherichia coli)
chain: MILLIDNYDSFTWNLYQYFCELGADVLVKRNDALTLADIDALKPQKIVISPGACTPDEAGISLDVIRHYAGRLPILGVCLGHQAMAQAFGGKVVRAAKVMHGKTSPITHNGEGVFRGLANPLTVTRYHSLVVEPDSLPACFDVTAWSETREIMGIRHRQWDLEGVQFHPESILSEQGHQLLANFLHR
notes: as for B2
For B8, in assay [2], the dissociation constant (Kd) turned out to be 180 nM. This lies in the sub-micromolar range.

B9: PabB variant bD308N (enzyme, Escherichia coli)
chain: MKTLSPAVITLLWRQDAAEFYFSRLSHLPWAMLLHSGYADHPYSRFDIVVAEPICTLTTFGKETVVSESEKRTTTTDDPLQVLQQVLDRADIRPTHNEDLPFQGGALGLFGYDLGRRFESLPEIAEQDIVLPDMAVGIYDWALIVDHQRHTVSLLSHNDVNARRAWLESQQFSPQEDFTLTSDWQSNMTREQYGEKFRQVQEYLHSGDCYQVNLAQRFHATYSGDEWQAFLQLNQANRAPFSAFLRLEQGAILSLSPERFILCDNSEIQTRPIKGTLPRLPDPQEDSKQAVKLANSAKDRAENLMIVNLMRNDIGRVAVAGSVKVPELFVVEPFPAVHHLVSTITAQLPEQLHASDLLRAAFPGGSITGAPKVRAMEIIDELEPQRRNAWCGSIGYLSFCGNMDTSITIRTLTAINGQIFCSAGGGIVADSQEEAEYQETFDKVNRILKQLEK
Regarding B9, the “glutaminase catalytic efficiency kcat/KM^Gln (coupled GDH assay, 200 μM Cho, PabB in fourfold excess)” value in assay [1] came to 36 M⁻¹ s⁻¹.

B10: PabB variant bE119R (enzyme, Escherichia coli)
chain: MKTLSPAVITLLWRQDAAEFYFSRLSHLPWAMLLHSGYADHPYSRFDIVVAEPICTLTTFGKETVVSESEKRTTTTDDPLQVLQQVLDRADIRPTHNEDLPFQGGALGLFGYDLGRRFRSLPEIAEQDIVLPDMAVGIYDWALIVDHQRHTVSLLSHNDVNARRAWLESQQFSPQEDFTLTSDWQSNMTREQYGEKFRQVQEYLHSGDCYQVNLAQRFHATYSGDEWQAFLQLNQANRAPFSAFLRLEQGAILSLSPERFILCDNSEIQTRPIKGTLPRLPDPQEDSKQAVKLANSAKDRAENLMIVDLMRNDIGRVAVAGSVKVPELFVVEPFPAVHHLVSTITAQLPEQLHASDLLRAAFPGGSITGAPKVRAMEIIDELEPQRRNAWCGSIGYLSFCGNMDTSITIRTLTAINGQIFCSAGGGIVADSQEEAEYQETFDKVNRILKQLEK
Consider B10, for which, in assay [1], the “glutaminase catalytic efficiency kcat/KM^Gln (coupled GDH assay, 200 μM Cho, PabB in fourfold excess)” value came out at 60 M⁻¹ s⁻¹.

B11: PabA double variant [Y127A, S171A] (enzyme, Escherichia coli)
chain: MILLIDNYDSFTWNLYQYFCELGADVLVKRNDALTLADIDALKPQKIVISPGPCTPDEAGISLDVIRHYAGRLPILGVCLGHQAMAQAFGGKVVRAAKVMHGKTSPITHNGEGVFRGLANPLTVTRAHSLVVEPDSLPACFDVTAWSETREIMGIRHRQWDLEGVQFHPEAILSEQGHQLLANFLHR
notes: PabA, glutaminase subunit of ADCS, E. coli; construct as m1 with two exchanges; Made by mutagenesis from the construct of m1; source: E. coli BL21-Gold (DE3), purified (Ni-IMAC, preparative gel filtration)
Consider B11, for which the binding result in assay [3] is recorded as “binds”.

B12: PabB variant bD308E (enzyme, Escherichia coli)
chain: MKTLSPAVITLLWRQDAAEFYFSRLSHLPWAMLLHSGYADHPYSRFDIVVAEPICTLTTFGKETVVSESEKRTTTTDDPLQVLQQVLDRADIRPTHNEDLPFQGGALGLFGYDLGRRFESLPEIAEQDIVLPDMAVGIYDWALIVDHQRHTVSLLSHNDVNARRAWLESQQFSPQEDFTLTSDWQSNMTREQYGEKFRQVQEYLHSGDCYQVNLAQRFHATYSGDEWQAFLQLNQANRAPFSAFLRLEQGAILSLSPERFILCDNSEIQTRPIKGTLPRLPDPQEDSKQAVKLANSAKDRAENLMIVELMRNDIGRVAVAGSVKVPELFVVEPFPAVHHLVSTITAQLPEQLHASDLLRAAFPGGSITGAPKVRAMEIIDELEPQRRNAWCGSIGYLSFCGNMDTSITIRTLTAINGQIFCSAGGGIVADSQEEAEYQETFDKVNRILKQLEK
Regarding B12, the “glutaminase catalytic efficiency kcat/KM^Gln (coupled GDH assay, 200 μM Cho, PabB in fourfold excess)” value in assay [1] is 1540 M⁻¹ s⁻¹.

B13: PabB variant bR311A (enzyme, Escherichia coli)
chain: MKTLSPAVITLLWRQDAAEFYFSRLSHLPWAMLLHSGYADHPYSRFDIVVAEPICTLTTFGKETVVSESEKRTTTTDDPLQVLQQVLDRADIRPTHNEDLPFQGGALGLFGYDLGRRFESLPEIAEQDIVLPDMAVGIYDWALIVDHQRHTVSLLSHNDVNARRAWLESQQFSPQEDFTLTSDWQSNMTREQYGEKFRQVQEYLHSGDCYQVNLAQRFHATYSGDEWQAFLQLNQANRAPFSAFLRLEQGAILSLSPERFILCDNSEIQTRPIKGTLPRLPDPQEDSKQAVKLANSAKDRAENLMIVDLMANDIGRVAVAGSVKVPELFVVEPFPAVHHLVSTITAQLPEQLHASDLLRAAFPGGSITGAPKVRAMEIIDELEPQRRNAWCGSIGYLSFCGNMDTSITIRTLTAINGQIFCSAGGGIVADSQEEAEYQETFDKVNRILKQLEK
Consider B13, for which, in assay [1], the “glutaminase catalytic efficiency kcat/KM^Gln (coupled GDH assay, 200 μM Cho, PabB in fourfold excess)” value is 100 M⁻¹ s⁻¹.
